Source: article PMC6237427
pKd: −log10 of the molar value.

How the values were obtained:
[1] = target: HIV-1 426c.DM (N460D.N463D) Env on Env-pseudotyped virus produced in 293S GnT1- cells (HIV-1)
[2] = target: HIV-1 426c.TM1 (N276D.N460D.N463D) Env on Env-pseudotyped virus produced in 293S GnT1- cells (HIV-1)
[3] = target: HIV-1 426c Env on Env-pseudotyped virus produced in 293S GnT1- cells (HIV-1)
[4] = target: HIV-1 426c.TM4 (S278R.G471S.N460D.N463D) Env on Env-pseudotyped virus produced in 293T cells (HIV-1)
[5] = target: HIV-1 426c.SM (N276D) Env on Env-pseudotyped virus produced in 293S GnT1- cells (HIV-1)
[6] = target: HIV-1 426c.TM4 (S278R.G471S.N460D.N463D) Env on Env-pseudotyped virus produced in 293S GnT1- cells (HIV-1)
[7] = target: germline-reverted VRC01; assay: BLI; Octet Red, 29°C, shaking 500 r.p.m.; germline-reverted VRC01 IgG immobilised on anti-AHC biosensors (40 μg/ml in PBS); Env gp140 trimers in 2-fold dilution series (4 μM to >250 nM) in kinetic buffer (1X PBS pH7.4, 0.1% BSA, 0.02% Tween 20, 0.05% NaN3); 300 s association, 600 s dissociation; 1:1 binding model; relative apparent affinities
[8] = target: HIV-1 426c.TM1 (N276D.N460D.N463D) Env on Env-pseudotyped virus produced in 293T cells (HIV-1)
[9] = target: HIV-1 426c.SM (N276D) Env on Env-pseudotyped virus produced in 293T cells (HIV-1)
[10] = target: HIV-1 426c Env on Env-pseudotyped virus produced in 293T cells (HIV-1)
[11] = target: HIV-1 426c.DM (N460D.N463D) Env on Env-pseudotyped virus produced in 293T cells (HIV-1)
[12] = target: HIV-1 TRO.11 Env on Env-pseudotyped virus produced in 293S GnT1- cells (HIV-1)
[13] = target: HIV-1 TRO.11 Env on Env-pseudotyped virus produced in 293T cells (HIV-1)

Substance	IC50 of neutralization of the Env-pseudotyped virus in TZM-bl cells [1] [µg/mL]	IC50 of neutralization of the Env-pseudotyped virus in TZM-bl cells [2] [µg/mL]	IC50 of neutralization of the Env-pseudotyped virus in TZM-bl cells [3] [µg/mL]	IC50 of neutralization of the Env-pseudotyped virus in TZM-bl cells [4] [µg/mL]	IC50 of neutralization of the Env-pseudotyped virus in TZM-bl cells [5] [µg/mL]	IC50 of neutralization of the Env-pseudotyped virus in TZM-bl cells [6] [µg/mL]	pKd [7]	koff [7] [s⁻¹]	kon [7] [M⁻¹ s⁻¹]	IC50 of neutralization of the Env-pseudotyped virus in TZM-bl cells [8] [µg/mL]	IC50 of neutralization of the Env-pseudotyped virus in TZM-bl cells [9] [µg/mL]	IC50 of neutralization of the Env-pseudotyped virus in TZM-bl cells [10] [µg/mL]	IC50 of neutralization of the Env-pseudotyped virus in TZM-bl cells [11] [µg/mL]	IC50 of neutralization of the Env-pseudotyped virus in TZM-bl cells [12] [µg/mL]	IC50 of neutralization of the Env-pseudotyped virus in TZM-bl cells [13] [µg/mL]
germline-reverted VRC20 (antibody)	> 25	4.6	> 25	2.39	10.3	0.03									
TM1 gp140 (GnT1-), uncleaved soluble 426c trimer (domain or fragment)							7.37	0.000229	5370						
TM1 gp140 (293T), uncleaved soluble 426c trimer (domain or fragment)							7.53	0.000148	5030						
germline-reverted VRC18b (antibody)	> 25	23	> 25	> 25	> 25	17.3									
germline-reverted VRC04 (antibody)	> 25	> 25	> 25	> 25	> 25	> 25									
germline-reverted VRC23 (antibody)	> 25	> 25	> 25	> 25	> 25	> 25									
germline-reverted VRC03 (antibody)	> 25	> 25	> 25	> 25	> 25	> 25									
germline-reverted 3BNC117 (antibody)	> 25	> 25	> 25	> 25	> 25	> 25									
germline-reverted VRC07 (antibody)	> 25	1.6	> 25	> 25	0.76	1.7									
426c N276D gp140 (GnT1-), uncleaved soluble trimer (domain or fragment)							6.75	0.000739	11100						
germline-reverted VRC01 (antibody)	> 50	1.37	> 50	> 25	0.99	0.36				> 50	> 50	> 50	> 50	> 50	> 50
426c N276D gp140 (293T), uncleaved soluble trimer (domain or fragment)							7.23	0.000193	9010						
germline-reverted 12A12 (antibody)	> 25	> 25	> 25	> 25	> 25	0.63									
